Assay results reported in publication PMC8552724.

Tested on: T1, AbrB (Bacillus thuringiensis (HD73?)), ORF:5acdf31f
T1 sequence: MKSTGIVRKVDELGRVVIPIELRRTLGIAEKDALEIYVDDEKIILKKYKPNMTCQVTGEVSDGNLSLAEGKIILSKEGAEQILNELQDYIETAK
Experiment: EMSA

## CATCCGTTAAAGGAAGCATGAATTAGTAATGAATTTGCAATTTCGATAAAAGTTTGTAATATTTCATTTTATGGACATACTTCATCTAGATCACTTTGTAATAGAATATTTCCTTTTATATACAATTAAACCACATTTATCCTTCGTGAAATGTTTATATATTAAATAATATAAAAAAATATAGGGTGTTATAATTAATTCGAAAACGTTTACAAAAAGAATGATGGAGGGATAATT (double strand) [Psip1Ab1-S (-201 to +36)]
  binding: binds
